The values below come from PMC3863616 (Journal of thrombosis and haemostasis : JTH, 2009).

Changes are numbered by the printed parent chain. Numbers in names are those of the source. Where two headings read alike, the source gives them in different places.

Experiment [1] concerns the target VWF (plastic-immobilized) (Homo sapiens) (UniProt P04275). Conditions: cited from earlier work.
Experiment [2] concerns the target VWF (antibody-immobilized) (Homo sapiens) (UniProt P04275). The conditions noted are these: cited from earlier work.
Experiment [3] has as its target Purified recombinant von Willebrand factor (UniProt P04275). In words: co-IP + ELISA.
Experiment [4] deals with Endogenous von Willebrand factor of normal human plasma (human (endogenous in normal human …, UniProt P04275 764-2813)). In words: co-IP + ELISA.
Experiment [5] concerns the target T1, Purified recombinant von Willebrand factor (UniProt P04275 764-2813). The experiment is described as follows: co-IP + ELISA.
The target of experiment [6] is T1, Purified recombinant von Willebrand …. In words: co-IP + ELISA. This is another data set of the same source.

As for ADAMTS13 (from UniProt Q76LX8), the Kd was 14 nM in experiment [1] and 90 nM in experiment [2].

As to “Human recombinant ADAMTS13 truncated after the eighth TSR (domain or fragment)”, the Kd in experiment [3] worked out at 100 nM.

B1: Endogenous ADAMTS13 of normal human plasma (enzyme, UniProt Q76LX8 75-1427, looked up)
chain: AAGGILHLELLVAVGPDVFQAHQEDTERYVLTNLNIGAELLRDPSLGAQFRVHLVKMVILTEPEGAPNITANLTSSLLSVCGWSQTINPEDDTDPGHADLVLYITRFDLELPDGNRQVRGVTQLGGACSPTWSCLITEDTGFDLGVTIAHEIGHSFGLEHDGAPGSGCGPSGHVMASDGAAPRAGLAWSPCSRRQLLSLLSAGRARCVWDPPRPQPGSAGHPPDAQPGLYYSANEQCRVAFGPKAVACTFAREHLDMCQALSCHTDPLDQSSCSRLLVPLLDGTECGVEKWCSKGRCRSLVELTPIAAVHGRWSSWGPRSPCSRSCGGGVVTRRRQCNNPRPAFGGRACVGADLQAEMCNTQACEKTQLEFMSQQCARTDGQPLRSSPGGASFYHWGAAVPHSQGDALCRHMCRAIGESFIMKRGDSFLDGTRCMPSGPREDGTLSLCVSGSCRTFGCDGRMDSQQVWDRCQVCGGDNSTCSPRKGSFTAGRAREYVTFLTVTPNLTSVYIANHRPLFTHLAVRIGGRYVVAGKMSISPNTTYPSLLEDGRVEYRVALTEDRLPRLEEIRIWGPLQEDADIQVYRRYGEEYGNLTRPDITFTYFQPKPRQAWVWAAVRGPCSVSCGAGLRWVNYSCLDQARKELVETVQCQGSQQPPAWPEACVLEPCPPYWAVGDFGPCSASCGGGLRERPVRCVEAQGSLLKTLPPARCRAGAQQPAVALETCNPQPCPARWEVSEPSSCTSAGGAGLALENETCVPGADGLEAPVTEGPGSVDEKLPAPEPCVGMSCPPGWGHLDATSAGEKAPSPWGSIRTGAQAAHVWTPAAGSCSVSCGRGLMELRFLCMDSALRVPVQEELCGLASKPGSRREVCQAVPCPARWQYKLAACSVSCGRGVVRRILYCARAHGEDDGEEILLDTQCQGLPRPEPQEACSLEPCPPRWKVMSLGPCSASCGLGTARRSVACVQLDQGQDVEVDEAACAALVRPEASVPCLIADCTYRWHVGTWMECSVSCGDGIQRRRDTCLGPQAQAPVPADFCQHLPKPVTVRGCWAGPCVGQGTPSLVPHEEAAAPGRTTATPAGASLEWSQARGLLFSPAPQPRRLLPGPQENSVQSSACGRQHLEPTGTIDMRGPGQADCAVAIGRPLGEVVTLRVLESSLNCSAGDMLLLWGRLTWRKMCRKLLDMTFSSKTNTLVVRQRCGRPGGGVLLRYGSQLAPETFYRECDMQLFGPWGEIVSPSLSPATSNAGGCRLFINVAPHARIAIHALATNMGAGTEGANASYILIRDTHSLRTTAFHGQQVLYWESESSQAEMEFSEGFLKAQASLRGQYWTLQSWVPEMQDPQSWKGKEGT
In the case of B1, in experiment [4], the “stoichiometry N” value is 0.004 ADAMTS13 per VWF (molar ratio).

B2: Human recombinant ADAMTS13 with the active site mutation E225Q (enzyme, UniProt Q76LX8 75-1427, looked up)
chain: B1 chain with E151Q
As to B2, the Kd in experiment [5] is greater than 500 nM; in experiment [6], 79 nM.
